The text below walks through data of patent US20230110188A1 (ARGENX IIP, published 2023).

What is called koff is the rate constant with which the complex falls apart.

T1: Human MuSK (R&D Systems, cat. 10189-MK, histidine tag) (human, UniProt O15146 24-495)
T1 construct: Bought protein; also called human monomeric MuSK-6xhis; not shown: histidine tag (6xhis)
T1 sequence: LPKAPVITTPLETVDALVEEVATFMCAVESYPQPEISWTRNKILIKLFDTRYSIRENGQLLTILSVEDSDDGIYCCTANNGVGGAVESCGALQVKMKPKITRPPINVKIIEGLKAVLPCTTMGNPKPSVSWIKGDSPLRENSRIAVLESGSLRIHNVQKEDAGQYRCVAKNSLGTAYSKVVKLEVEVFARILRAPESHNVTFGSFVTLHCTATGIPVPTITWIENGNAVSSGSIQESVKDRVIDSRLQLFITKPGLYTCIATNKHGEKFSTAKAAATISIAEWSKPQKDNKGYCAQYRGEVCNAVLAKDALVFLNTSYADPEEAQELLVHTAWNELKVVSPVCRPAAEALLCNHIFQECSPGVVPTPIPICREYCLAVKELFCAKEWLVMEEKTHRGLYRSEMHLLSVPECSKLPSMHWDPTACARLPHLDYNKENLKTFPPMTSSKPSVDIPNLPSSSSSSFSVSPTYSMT

T2: Mouse MuSK as it stands on mouse muscle (neuromuscular junctions, C2C12 myotubes) (mouse, UniProt Q61006 22-868)
T2 sequence (looked up): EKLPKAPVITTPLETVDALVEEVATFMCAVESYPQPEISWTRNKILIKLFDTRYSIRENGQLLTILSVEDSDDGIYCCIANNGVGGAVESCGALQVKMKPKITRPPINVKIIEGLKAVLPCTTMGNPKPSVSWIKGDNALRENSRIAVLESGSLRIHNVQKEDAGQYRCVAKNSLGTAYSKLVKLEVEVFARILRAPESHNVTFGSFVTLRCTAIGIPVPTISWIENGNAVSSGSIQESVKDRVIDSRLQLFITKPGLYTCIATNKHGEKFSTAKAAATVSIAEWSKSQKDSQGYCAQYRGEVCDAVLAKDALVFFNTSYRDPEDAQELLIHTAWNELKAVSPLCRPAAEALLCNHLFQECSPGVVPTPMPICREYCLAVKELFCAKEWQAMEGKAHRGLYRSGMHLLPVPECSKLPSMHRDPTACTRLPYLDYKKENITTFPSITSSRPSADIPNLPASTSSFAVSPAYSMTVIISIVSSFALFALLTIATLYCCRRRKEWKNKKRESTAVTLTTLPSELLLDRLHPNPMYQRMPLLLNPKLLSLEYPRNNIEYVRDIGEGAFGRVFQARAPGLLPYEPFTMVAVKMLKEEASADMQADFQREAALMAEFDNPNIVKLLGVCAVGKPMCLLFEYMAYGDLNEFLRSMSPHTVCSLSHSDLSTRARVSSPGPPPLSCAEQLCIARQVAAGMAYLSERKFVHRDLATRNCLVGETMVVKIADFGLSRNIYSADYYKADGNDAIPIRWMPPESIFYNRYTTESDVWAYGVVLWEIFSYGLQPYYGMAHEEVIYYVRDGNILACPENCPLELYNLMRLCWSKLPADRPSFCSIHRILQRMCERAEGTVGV

B1: 3D10a (antibody, human IgG1, kappa, L234A L235A, V domains shown)
VH: EVQLVESGGGLVKPGGSLRLSCAASGFTFSASTMAWVRQAPGKGLEWVSSVSGDSHHIYYADSLKGRFTISRDNAKNSLYLQMNSLRAEDTAVYYCARERLLRLGVGFDSWGQGTLVTVSS
VL: DIQMTQSPSSLSASVGDRVTITCRASQRISGFVNWYQQKPGKAPKLLIYAASTLQSGVPSRFSGSGSGTDFTLTISSLQPEDFATYYCQQSYSPLYTFGQGTKLEIKR
B2: 4D3 (antibody, human IgG1, kappa, L234A L235A, V domains shown)
VH: B1 VH with A31S, S32Y, A35T, V51I, G53S, D54G, S55G, H57Y, A61T, S110F
VL: B1 VL with R28S, F32Y, V33L, P94A
B3: 3D9b (antibody, human IgG1, kappa, L234A L235A, V domains shown)
VH: EVQLVESGGGLVKPGGSLRLSCAASGFTFSTYTMHWVRQAPGKGLEWVSSISSRSAYKYYADSVKGRFTISRDNAKNSLYLQMNSLRAEDTAVYYCARDFFQLGPPRFDSWGQGTLVTVSS
VL: B1 VL with G31S, V33L, A50G, T53N, L95S
B4: 3F6c (antibody, human IgG1, kappa, L234A L235A, V domains shown)
VH: EVQLVESGGGLVKPGGSLRLSCAASGFTFSSYTMDWVRQAPGKGLEWVSSIGSNGDYIYYADSVRGRFTISRDNAKNSLYLQMNSLRAEDTAVYYCARGQLAVAGTHFDYWGQGTLVTVSS
VL: B1 VL with R28K, I29V, S30N, G31K, F32Y, Y96S

Where a chain is given by its changes, count along the chain named.

The first assay concerns the target T1, Human MuSK (R&D Systems, cat. 10189-MK, …). Nature of the assay: SPR (Biacore), antibody captured on anti-hFc chip; 1.25 nM; dissociation pH 5.5. An excerpt: (§1) In order to study pH dependent binding of our antibodies to MuSK, the Biacore was used with the same setup as described in the paragraph entitled “Binding affinity for mouse, human and rhesus monkey recombinant MuSK in Biacore”. 6. […] For the other antibodies there is no real difference observed between pH 7.4 and 5.5.
On the technique in general: In SPR one partner is held on a chip, and binding of the other changes the refractive index at the surface.
The molecule B1 had an off-rate (koff) of 7e-05 s⁻¹.
Still for that read-out and setting: as for B2, the figure is 0.00016 s⁻¹; as for B3, 3e-05 s⁻¹.
Turning to B4, the koff was 0.00018 s⁻¹.

For a further assay, the target named is T2, Mouse MuSK as it stands on mouse muscle …. The experiment in a line: cell-based or functional assay.
As to B1, the “AChR clusters larger or equal to 15 µm (large clusters) compared to agrin; Exp 1, batch Argenx” value was 52 % of agrin; the “AChR clusters larger or equal to 15 µm (large clusters) compared to agrin; Exp 2, batch Argenx” value was 73 % of agrin; the “AChR clusters larger or equal to 15 µm (large clusters) compared to agrin; Exp 3, batch UPX” value is 61 % of agrin.
The like results for B2 were, in that order, 84 % of agrin, 58 % of agrin and 59 % of agrin.
The matching figures for B3: 80 % of agrin, 74 % of agrin and 70 % of agrin.
The like results for B4 were, in that order, 56 % of agrin, 70 % of agrin and 57 % of agrin.

A further assay has the same target. The experiment in a line: cell-based or functional assay. This is another data set of the same source.
For the molecule B1, the “MuSK phosphorylation, % versus agrin (C2C12 myotubes)” value came to 83 % versus agrin.
Take B2: the “MuSK phosphorylation, % versus agrin (C2C12 myotubes)” value worked out at 112 % versus agrin.
On the same count and under the same terms, as for B3, the figure is 205 % versus agrin; as for B4, 100 % versus agrin.

For another assay, the target named is T1, Human MuSK (R&D Systems, cat. 10189-MK, …). The experiment in a line: SPR (Biacore), pH 7.4 (summary table, repeats the average of Table 16); pH 7.4.
From the text: as §1
With B1, the dissociation rate constant (koff) was determined as 0.00016 s⁻¹.

Another assay has the same target. The experiment in a line: SPR (Biacore), antibody captured on anti-hFc chip; 2.5 nM; dissociation pH 7.4.
From the text: as §1
B1: the koff is 0.00018 s⁻¹.
For B2, the koff came to 0.00015 s⁻¹.
The same measure, in the same setting: then B3, with 9e-05 s⁻¹; and B4, with 6e-05 s⁻¹.

The target is the same in the next assay. Nature of the assay: SPR (Biacore), antibody captured on anti-hFc chip; average of 0.3125-10 nM; dissociation pH 5.5.
From the text: as §1
For the molecule B1, the koff came out at 9e-05 s⁻¹.
On the same count and under the same terms, as for B2, the figure is 0.00016 s⁻¹.
Still for that read-out and setting: then B3, with 4e-05 s⁻¹; and B4, with 0.0002 s⁻¹.

The next assay shares this target. The experiment in a line: SPR (Biacore), antibody captured on anti-hFc chip; 1.25 nM; dissociation pH 7.4.
From the text: as §1
As for B1, the koff amounted to 0.00016 s⁻¹.
Regarding B2, the koff is 0.00015 s⁻¹.
Still for that read-out and setting: as for B3, the figure is 0.00014 s⁻¹; as for B4, 7e-05 s⁻¹.

Another assay has the same target. Nature of the assay: SPR (Biacore), antibody captured on anti-hFc chip; average of 0.3125-10 nM; dissociation pH 7.4.
From the text: as §1
Take B1: the off-rate (koff) was 0.00016 s⁻¹.
Same read-out and setting: then B2, with 0.00014 s⁻¹.
Still for that read-out and setting: as for B3, the figure is 0.00012 s⁻¹.
Still for that read-out and setting: then B4, with 8e-05 s⁻¹.

For another assay the target is unchanged. Nature of the assay: SPR (Biacore), antibody captured on anti-hFc chip; 10 nM; dissociation pH 7.4.
From the text: as §1
In turn, B1 registered an off-rate constant (koff) of 0.00014 s⁻¹.
The same measure, in the same setting: as for B2, the figure is 0.00013 s⁻¹; as for B3, 8e-05 s⁻¹.
Same read-out and setting: then B4, with 6e-05 s⁻¹.
